Measurements from patent US9732156B2, “Methods of treating rheumatoid arthritis using antibodies to matrix metalloproteinase 9” (Gilead Biologics, Inc., priority 2012, dated 2017).

Columns and labels:
[1] = test system: collagen-induced arthritis; experiment: CIA mouse model of rheumatoid arthritis; format: in vivo
Protocol: This example provides additional characterizations of the animals in example 7 that were treated with either vehicle, AB0041 (in the rat model) or AB0046 (in the mouse model) at 2, 10, or 50 mg/Kg, Enbrel at 10 mg/Kg, or methotrexate (MTX) at 0.5 mg/Kg.
In addition to clinical scoring in Table 6 that was conducted in example 7, paw swelling, ankle diameter and body weights of the treated animals were measured. The measurements were conducted once a week before randomization and three times a week thereafter.
In addition, hind limbs were examined microscopically for soft-tissue changes (edema, tissue/vessel necrosis, inflammatory cell infiltration, and fibroplasias) and cartilage and bone changes (cartilage erosion, bone erosion, periosteal bone formation, synovitis, pannus formation, and joint destruction). A standard severity score was used: 0=no significant change, 1=minimal, 2=mild, 3=moderate and 4=severe. The severity scores were based on global changes in each limb.
(§1) Further, serum panel analyses of terminal serum samples were characterized using ELISA. […] AB0046 titers were measured in terminal serum samples.

[2] = Antibody titers in serum of the CIA study; format: in vivo, mouse
Protocol: as §1

DSS-induced colitis [3] = experiment: DSS colitis model, prophylactic treatment (Example 5); format: in vivo, mouse
Protocol: The efficacy of AB0046 in a prophylactic setting was assessed and compared with reference agent Prednisolone. The indicated treatment was given at day −1, with the indicated dosing schedules. Induction of disease with 3% DSS was initiated at day 0 and was as described above. Animals were sacrificed at day 14.

DSS-induced colitis [4] = experiment: DSS-induced colitis model, treatment of established disease (Example 4); format: in vivo, mouse
Source text: The dextran sodium sulfate (DSS)-induced model of colitis is an accepted model for evaluation of inflammatory bowel disease therapeutics. In this model, oral administration of DSS to mice or rats results in damage to the colonic mucosa. Animals receiving DSS develop bloody diarrhea and lose weight. The inflammation and tissue degradation observed in this model is restricted to the mucosa and generally affects the entire colon. […] The localization of disease and the pathology observed in this model is considered to be reminiscent of human ulcerative colitis (UC), including similar inflammatory cell infiltrate, ulceration, and crypt abscesses.
AB0046 was used in the DSS colitis model (in a 14-day treatment model). Treatment began after 5 days of oral exposure to 3% DSS in drinking water, according to the following experimental design: disease induction with 3% DSS was carried out beginning at day 0 through day 5, with treatment beginning at day 6 (treatment details for animals in groups 1-5 given in Table 2, below); animals were sacrificed at day 14. Etanercept (marketed under the trade name ENBREL®) was used as a reference compound for the therapeutic effect of anti-TNFα therapy in this model. AC-1, an irrelevant antibody of matched isotype (IgG1), was used as a control.
The course of disease was evaluated by video endoscopy (at days 6, 10, and 14), animal weight measurements, observation of stool consistency, and post-study histopathology analysis of colons.
Video endoscopy of the lower colon was performed in a blinded fashion using a small animal endoscope; colitis was scored visually on a scale of 1-4 based on the degree of ulceration, friability, and vascularity present in the tissue. Each mouse was assigned a single score corresponding to the most severe damage observed throughout the entire length of the colon examined.
At study termination, the majority of the distal colon was excised from each animal, formalin-fixed, then embedded in paraffin and sectioned for histology. Slides were stained with hematoxylin and eosin and examined by a board-certified veterinary pathologist blinded as to treatment groups. Tissues were scored for inflammation, edema, and mucosal necrosis according to the scoring scale of 1-4 for each parameter. Sum pathology scores were calculated by summing the three individual parameter score means (inflammation, edema and necrosis).
Body weight and the incidence of diarrhea were recorded daily over the course of the study. The evaluation of body weight changes was performed by calculating the area under the curve (AUC) with the trapezoidal rule method; a similar calculation of AUC for stool consistency was performed by assigning incidence of diarrhea a score of 100 and lack of diarrhea a score of 0.
A trend for reduction of systemic disease-associated cytokines by AB0046 was observed. […] Serum MMP-9 levels were not induced (i.e., no difference between no DSS and vehicle groups; interference by drug antibody cannot be ruled out for MMP9 serum level measurements).

B1: AB0046: mouse anti-mouse MMP9 surrogate antibody, kappa light chain (SEQ ID NO: 45), IgG1 heavy chain (SEQ ID NO: 46) (antibody, listed as Mus musculus)
heavy: MGWSSIILFLVATATGVHSQVQLQQPGSVLVRPGASVKLSCTASGYTFTSYWMNWVKQRPGQGLEWIGEIYPISGRTNYNEKFKVKATLTVDTSSSTAYMDLNSLTSEDSAVYYCARSRANWDDYWGQGTTLTVSSAKTTPPSVYPLAPGSAAQTNSMVTLGCLVKGYFPEPVTVTWNSGSLSSGVHTFPAVLQSDLYTLSSSVTVPSSTWPSETVTCNVAHPASSTKVDKKIVPRDCGCKPCICTVPEVSSVFIFPPKPKDVLTITLTPKVTCVVVDISKDDPEVQFSWFVDDVEVHTAQTQPREEQFNSTFRSVSELPIMHQDWLNGKEFKCRVNSAAFPAPIEKTISKTKGRPKAPQVYTIPPPKEQMAKDKVSLTCMITDFFPEDITVEWQWNGQPAENYKNTQPIMDTDGSYFVYSKLNVQKSNWEAGNTFTCSVLHEGLHNHHTEKSLSHSPGK
light: MSSAQFLGLLLLCFQGTRCDIQMTQTTSSLSASLGDRVTISCSASQGISNYLNWYQQKPDGTFKLLIYYTSILHSGVPSRFSGSGSGTDYSLTISNLEPEDIATYYCQQYGWLPRTFGGGTKLEIKRADAAPTVSIFPPSSEQLTSGGASVVCFLNNFYPKDINVKWKIDGSERQNGVLNSWTDQDSKDSTYSMSSTLTLTKDEYERHNSYTCEATHKTSTSPIVKSFNRNEC
modifications: CHAIN (1)...(460) AB0046 IgG1 heavy chain; CHAIN (1)...(233) AB0046 kappa light chain
- soft tissue disease, joint damage and destruction (histology) ([1]; 50 mg/kg): reduced all measures of soft tissue diseases, joint damage and destruction
- qualitative and quantitative measurements of clinical disease (paw swelling, ankle diameter, body weight) ([1]; all doses (2, 10, 50 mg/Kg)): significant reversal/mitigation
- serum markers (KC/GRO, MIP-2, GCP-2, lymphotactin, MCP-1, MCP-3, CXCL-10, OSM, MIP-1β, MIP-1γ, Apo A-1) ([1]; terminal serum, ELISA): statistically significant reduction
- antibody titer in serum ([2]; 2 mg/kg dose level): not detectable
- antibody titer in terminal serum ([2]; dosing regimens of 10 and 50 mg/kg): measurable drug levels
- endoscopic evaluation (DSS-induced colitis [3]; Day 10, 30 mg/kg IP from day −1): efficacy of AB0046 prophylactic treatment was observed
- incidence of diarrhea (DSS-induced colitis [3]; prophylactic administration): reduced the incidence of diarrhea
- inflammation, edema, necrosis and pathology sum score (DSS-induced colitis [3]; study termination): reduced inflammation, edema, and necrosis
- reduction of the incidence of diarrhea (DSS-induced colitis [4]; AUC, did not reach statistical significance): about 30%
- mean endoscopy score (DSS-induced colitis [4]; Day 14 (and Day 10), vs Vehicle and AC-1, AB0046 30 mg/kg IP, ENBREL 10 mg/kg IP): significant improvement in mean endoscopy scores
- histopathology: inflammation, edema, mucosal necrosis (DSS-induced colitis [4]; colons at termination, compared to vehicle): significantly reduced all three aspects of disease pathology
- disease-associated increases in serum MCP-1, MCP-3 and eotaxin (DSS-induced colitis [4]; terminal serum): reduced
- serum mediators KC/GRO, CXCL10, MPO, LIF, MIP-2, MCP-5 (DSS-induced colitis [4]; terminal serum, multianalyte ELISA): systemic reduction
- serum IL-17A (DSS-induced colitis [4]; terminal serum, near lower level of quantification): trend for a reduction
- serum IL-6 (DSS-induced colitis [4]; terminal serum, not distinguished from AC-1 isotype control): reduction
- MMP9 expression in colon by IHC (DSS-induced colitis [4]; three colons per group): reduction in MMP9 expression
- body weight loss (AUC) (DSS-induced colitis [4]; vs AC-1 isotype control or vehicle): significant protection against body weight loss
